To fix the notation:
B1: SAD10318_P03_A08 (ADI-57283) (antibody, V domains shown)
VH: QVQLVQSGAEVKKPGASVKVSCKASGFNIKDYYMHWVRQAPGQRLEWMGWIDLENANTIYDAKFQGRVTITRDTSASTAYMELSSLRSEDTAVYYCARDAYGRYHYDHWGQGTLVTVSS
VL: DIVMTQSPDSLAVSLGERATINCKSSQSLLNARTGHNHLAWYQQKPGQPPKLLIYWASTRESGVPDRFSGSGSGTDFTLTISSLQAEDVAVYYCKQSYSRRTFGGGTKVEIK
notes: IgG; also called Ab195
B2: SAD10318_P04_E11 (ADI-57292) (antibody, V domains shown)
VH: QVQLVQSGAEVKKPGASVKVSCKASGFNIKDYYMHWVRQAPGQRLEWMGWIDLENANTIYDAKFQGRVTITRDTSASTAYMELSSLRSEDTAVYYCARDAYGHYFYDHWGQGTLVTVSS
VL: DIVMTQSPDSLAVSLGERATINCKSSQSLLNARTGHNHLAWYQQKPGQPPKLLIYWASTRESGVPDRFSGSGSGTDFTLTISSLQAEDVAVYYCHQSYSHRTFGGGTKVEIK
notes: IgG; also called Ab220
B3: SAD10318_P04_F10 (ADI-57289) (antibody, V domains shown)
VH: QVQLVQSGAEVKKPGASVKVSCKASGFNIKDYYMHWVRQAPGQRLEWMGWIDLENANTIYDAKFQGRVTITRDTSASTAYMELSSLRSEDTAVYYCARDAYHRYHYDVWGQGTLVTVSS
VL: DIVMTQSPDSLAVSLGERATINCKSSQSLLNARTHKNHLAWYQQKPGQPPKLLIYWASTRESGVPDRFSGSGSGTDFTLTISSLQAEDVAVYYCKQSYSRRTFGGGTKVEIK
notes: IgG; also called Ab213
B4: SAD10318_P04_H10 (ADI-57290) (antibody, V domains shown)
VH: QVQLVQSGAEVKKPGASVKVSCKASGFNIKDYYMHWVRQAPGQRLEWMGWIDLENANTIYDAKFQGRVTITRDTSASTAYMELSSLRSEDTAVYYCARDHYGHYFYDVWGQGTLVTVSS
VL: DIVMTQSPDSLAVSLGERATINCKSSQSLLNAHTGKNHLAWYQQKPGQPPKLLIYWASTRESGVPDRFSGSGSGTDFTLTISSLQAEDVAVYYCKQSYSRRTFGGGTKVEIK
notes: IgG; also called Ab214
B5: SAD10318_P04_E10 (ADI-57288) (antibody, V domains shown)
VH: QVQLVQSGAEVKKPGASVKVSCKASGFNIKDYYMHWVRQAPGQRLEWMGWIDLENANTIYDAKFQGRVTITRDTSASTAYMELSSLRSEDTAVYYCARDAYGRYHYDHWGQGTLVTVSS
VL: DIVMTQSPDSLAVSLGERATINCKSSQSLLNARTGHNYLAWYQQKPGQPPKLLISGSTRESGVPDRFSGSGSGTDFTLTISSLQAEDVAVYYCHQSYHRRTFGGGTKVEIK
notes: IgG; also called Ab212
B6: SAD10318_P04_D10 (ADI-48613) (antibody, V domains shown)
VH: QVQLVQSGAEVKKPGASVKVSCKASGFNIKDYYMHWVRQAPGQRLEWMGWIDLENANTIYDAKFQGRVTITRDTSASTAYMELSSLRSEDTAVYYCARDAYGHYHYDVWGQGTLVTVSS
VL: DIVMTQSPDSLAVSLGERATINCKSSQSLLHARTGKNHLAWYQQKPGQPPKLLIYWASTRESGVPDRFSGSGSGTDFTLTISSLQAEDVAVYYCKQSYSRRTFGGGTKVEIK
notes: IgG; also called Ab211
B7: SAD10318_P03_B08 (ADI-57284) (antibody, V domains shown)
VH: QVQLVQSGAEVKKPGASVKVSCKASGFNIKDYYMHWVRQAPGQRLEWMGWIDLENANTIYDAKFQGRVTITRDTSASTAYMELSSLRSEDTAVYYCARDHYHRYFYDVWGQGTLVTVSS
VL: DIVMTQSPDSLAVSLGERATINCKSSQSLLNAHTGHNYLAWYQQKPGQPPKLLIYWASTRESGVPDRFSGSGSGTDFTLTISSLQAEDVAVYYCHQSYSHRTFGGGTKVEIK
notes: IgG; also called Ab196
B8: SAD10318_P04_G12 (ADI-57296) (antibody, V domains shown)
VH: QVQLVQSGAEVKKPGASVKVSCKASGFNIKDYYMHWVRQAPGQRLEWMGWIDLENANTIYDAKFQGRVTITRDTSASTAYMELSSLRSEDTAVYYCARDAYGHYHYDVWGQGTLVTVSS
VL: DIVMTQSPDSLAVSLGERATINCKSSQSLLNAHTGKNHLAWYQQKPGQPPKLLIYWASTRESGVPDRFSGSGSGTDFTLTISSLQAEDVAVYYCKQSYSRRTFGGGTKVEIK
notes: IgG; also called Ab227
B9: SAD10318_P03_G09 (ADI-57287) (antibody, V domains shown)
VH: QVQLVQSGAEVKKPGASVKVSCKASGFNIKDYYMHWVRQAPGQRLEWMGWIDLENANTIYDAKFQGRVTITRDTSASTAYMELSSLRSEDTAVYYCARDHYGHYFYDVWGQGTLVTVSS
VL: DIVMTQSPDSLAVSLGERATINCKSSQSLLNAHTGHNYLAWYQQKPGQPPKLLIYWASTRESGVPDRFSGSGSGTDFTLTISSLQAEDVAVYYCHQSYSHRTFGGGTKVEIK
notes: IgG; also called Ab209
B10: SAD10319_P01_A01 (ADI-48619) (antibody, V domains shown)
VH: QVQLVQSGAEVKKPGASVKVSCKASGYTFASYAMHWVRQAPGQRLEWMGWINPDTGNTVYSQKFQGRVTITRDTSASTAYMELSSLRSEDTAVYYCARDAYHHYFYDVWGQGTLVTVSS
VL: DIVMTQSPDSLAVSLGERATINCKSSQSLLNARTGKNYLAWYQQKPGQPPKLLIYWASTRESGVPDRFSGSGSGTDFTLTISSLQAEDVAVYYCKQSYSRRTFGGGTKVEIK
notes: IgG; also called Ab229
B11: SAD10318_P03_F09 (ADI-57286) (antibody, V domains shown)
VH: QVQLVQSGAEVKKPGASVKVSCKASGFNIKDYYMHWVRQAPGQRLEWMGWIDLENANTIYDAKFQGRVTITRDTSASTAYMELSSLRSEDTAVYYCARDAYGHYHYDVWGQGTLVTVSS
VL: DIVMTQSPDSLAVSLGERATINCKSSQSLLNAHPGKNYLAWYQQKPGQPPKLLIYWASTRESGVPDRFSGSGSGTDFTLTISSLQAEDVAVYYCHQSYHRRTFGGGTKVEIK
notes: IgG; also called Ab208
B12: SAD10318_P04_F11 (ADI-57293) (antibody, V domains shown)
VH: QVQLVQSGAEVKKPGASVKVSCKASGFNTKDYYMHWVRQAPGQRLEWMGWIDLENANTIYDAKFQGRVTITRDTSASTAYMELSSLRSEDTAVYYCARDAHGRYHYDVWGQGTLVTVSS
VL: DIVMTQSPDSLAVSLGERATINCKSSQSLLNARTGHNHLAWYQQKPGQPPKLLIYWASTRESGVPDRFSGSGSGTDFTLTISSLQAEDVAVYYCKQSYSRRTFGGGTKVEIK
notes: IgG; also called Ab221
B13: SAD10318_P04_H12 (ADI-57297) (antibody, V domains shown)
VH: QVQLVQSGAEVKKPGASVKVSCKASGFNIKDYYMHWVRQAPGQRLEWMGWIDLENANTIYDAKFQGRVTITRDTSASTAYMELSSLRSEDTAVYYCARDAHGRYFHDVWGQGTLVTVSS
VL: DIVMTQSPDSLAVSLGERATINCKSSQSLLNAHTGKNHLAWYQQKPGQPPKLLIYWASTRESGVPDRFSGSGSGTDFTLTISSLQAEDVAVYYCHQSYSHRTFGGGTKVEIK
notes: IgG; also called Ab228
B14: SAD10319_P01_G01 (ADI-57300) (antibody, V domains shown)
VH: QVQLVQSGAEVKKPGASVKVSCKASGYTFTSADMHWVRQAPGQRLQPMGWINAGTGATKYSQKFQGRVTITRDTSANTAYMELSSLRSEDTAVYYCARDAYGRYFYDVWGQGTLVTVSS
VL: DIVMTQSPDSLAVSLGERATINCKSSQSLLNARTGKNYLAWYQQKPGQPPKLLIYWASTRESGVPDRFSGSGSGTDFTLTISSLQAEDVAVYYCKQSYSRRTFGGGTKVEIK
notes: IgG; ADI-57300 is also printed for Ab28; also called Ab234
B15: SAD10318_P03_G08 (ADI-57285) (antibody, V domains shown)
VH: QVQLVQSGAEVKKPGASVKVSCKASGFNIKDYYMHWVRQAPGQRLEWMGWIDLENANTIYDAKFQGRVTITRDTSASTAYMELSSLRSEDTAVYYCARDHYHRYFYDVWGQGTLVTVSS
VL: DIVMTQSPDSLAVSLGERATINCKSSQSLLHARTGKNHLAWYQQKPGQPPKLLIYWASTRESGVPDRFSGSGSGTDFTLTISSLQAEDVAVYYCKQSHSHRTFGGGTKVEIK
notes: IgG; also called Ab201
B16: SAD10319_P01_D01 (ADI-48622) (antibody, V domains shown)
VH: QVQLVQSGAEVKKPGASVKVSCKASGYTFKSYDMHWVRQAPGQRLEWMGWIDAGTGNTKYSQKFQGRVTITRDTSASTAYMELSSLRSEDTAVYYCARDAYGRYFYDVWGQGTLVTVSS
VL: DIVMTQSPDSLAVSLGERATINCKSSQSLLNARTGKNYLAWYQQKPGQPPKLLIYWASTRESGVPDRFSGSGSGTDFTLTISSLQAEDVAVYYCKQSYSRRTFGGGTKVEIK
notes: IgG; also called Ab231
B17: SAD10319_P01_C01 (ADI-48621 and ADI-48636) (antibody, V domains shown)
VH: QVQLVQSGAEVKKPGASVKVSCKASGYTFTDYDMHWVRQAPGQRLEWMGWIDAGTGLTKYSQKFQGRVTITRDTSASTAYMELSSLRSEDTAVYYCARDHYGHYFYDVWGQGTLVTVSS
VL: DIVMTQSPDSLAVSLGERATINCKSSQSLLNARTGKNYLAWYQQKPGQPPKLLIYWASTRESGVPDRFSGSGSGTDFTLTISSLQAEDVAVYYCKQSYSRRTFGGGTKVEIK
notes: IgG; also called Ab230
B18: SAD10319_P01_F01 (ADI-57299) (antibody, V domains shown)
VH: QVQLVQSGAEVKKPGASVKVSCKASGYTFQSYDMHWVRQAPGQRLQWMGWINPTTGNTVYSQKFQGRVTITRDTSASTAYMELSSLRSEDTAVYYCARDAYGRYFYDVWGQGTLVTVSS
VL: DIVMTQSPDSLAVSLGERATINCKSSQSLLNARTGKNYLAWYQQKPGQPPKLLIYWASTRESGVPDRFSGSGSGTDFTLTISSLQAEDVAVYYCKQSYSRRTFGGGTKVEIK
notes: IgG; also called Ab233
B19: SAD10319_P01_E01 (ADI-57298) (antibody, V domains shown)
VH: QVQLVQSGAEVKKPGASVKVSCKASGYTFDAYAMHWVRQAPGQRLEWMGWIDAGTGATAYSQKFQGRVTITRDTSASTAYMELSSLRSEDTAVYYCARDHYGHYFYDVWGQGTLVTVSS
VL: DIVMTQSPDSLAVSLGERATINCKSSQSLLNARTGKNYLAWYQQKPGQPPKLLIYWASTRESGVPDRFSGSGSGTDFTLTISSLQAEDVAVYYCKQSYSRRTFGGGTKVEIK
notes: IgG; also called Ab232
B20: SAD10318_P04_G11 (ADI-57294) (antibody, V domains shown)
VH: QVQLVQSGAEVKKPGASVKVSCKASGFNIKDYYMHWVRQAPGQRLEWMGWIDLENANTIYDAKFQGRVTITRDASASTAYMELSSLRSEDTAVYYCARDAYHRYHYDVWGQGTLVTVSS
VL: DIVMTQSPDSLAVSLGERATINCKSSQSLLNAHTGKNHLAWYQQKPGQPPKLLIYWASTRESGVPDRFSGSGSGTDFTLTISSLQAEDVAVYYCKQSHSRRTFGGGTKVEIK
notes: IgG; also called Ab222

The text below walks through data of US20220380463A1 (Adimab, published 2022).

This test has as its target T1, Cynomolgus CD3εδ Fc heterodimer (Cy CD3ε Fc / CD3δ Fc-HIS) (cynomolgus, UniProt Q95LI8 22-100).
T1 chain 1: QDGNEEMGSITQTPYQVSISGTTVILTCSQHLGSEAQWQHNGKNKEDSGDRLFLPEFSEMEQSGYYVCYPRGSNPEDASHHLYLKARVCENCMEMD
T1 chain 2: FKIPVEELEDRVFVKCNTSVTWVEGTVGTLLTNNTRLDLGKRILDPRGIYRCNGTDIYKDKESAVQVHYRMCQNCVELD
As to the kind of experiment: BLI (Octet), IgG on AHC sensor, pH 6.0.
The term koff denotes a measure of how fast the partners let go of each other. For the molecule B1, the koff came out at 0.006 s⁻¹.
B2 displayed a koff of 0.00256 s⁻¹.
B3 had a koff of 0.00436 s⁻¹.
For the molecule B4, the koff was found to be 0.00284 s⁻¹.
Take B5: the koff was 0.00245 s⁻¹.
B6 displayed a koff of 0.00251 s⁻¹.
Consider B7, for which the koff is 0.00303 s⁻¹.
In the case of B8, the koff worked out at 0.0025 s⁻¹.
Regarding B9, the koff came out at 0.00559 s⁻¹.
The figure for B10 is 0.0328 s⁻¹; for B11 it is 0.00139 s⁻¹.
B12 registered a koff of 0.00183 s⁻¹.
On to B13, for which the dissociation rate constant (koff) was determined as 0.00254 s⁻¹.
B14: the koff is 0.00249 s⁻¹.
Regarding B15, the koff came out at 0.00544 s⁻¹.
B16 returned a koff of 0.00946 s⁻¹.
B17: the dissociation rate constant (koff) worked out at 0.00402 s⁻¹.
On to B18, for which the koff came out at 0.0179 s⁻¹.
The molecule B19 showed a koff of 0.0281 s⁻¹.
With B20 the figure was 0.00215 s⁻¹.
